Measurements as given in patent US20170173105A1, “AUTOASSEMBLING PEPTIDES FOR THE TREATMENT OF PULMONARY LEAKAGE” (3-D MATRIX, LTD., priority 2014, published 2017).

Tests used:
[1] = Rheological properties of pH adjusted peptide solutions and hydrogels (stress/frequency sweep); type: physicochemical
Method: Based on the visual observation of the effect of pH level on the properties of the peptide solutions, the effect on the rheological properties of the peptide solutions after adjusting their pH level to 3.4 (PuraMatrix® and KLD12) or 3.7 (IEIK13) was evaluated. If the pH levels of peptide solutions are higher than 3.5 (PuraMatrix® and KLD12) or 3.7 (IEIK13), the peptide solution began phase separation becoming cloudy. The rheological properties of PuraMatrix®, KLD12 and IEIK13 solutions were higher at pH 3.4. The results are shown in FIG. 2 for KLD12 1%, FIG. 3 for IEIK13 1%, and FIGS. 4-5 for PuraMatrix® 1% and 2.5%, respectively. Stress sweep tests were performed at 10 rad/s. Frequency sweep tests were performed at 1 Pa.
Based on the results of the effect on the rheological properties of the peptide solutions after adjusting their pH level to 3.4 (PuraMatrix® and KLD12) or 3.7 (IEIK13), the effect on the rheological properties of the peptide solutions at various pH levels was evaluated. […] The rheological properties of peptides were evaluated at various concentrations using a rheometer (DHR-1, TA Instruments) with 20 mm plates. The results are shown in FIG. 6A for PuraMatrix® 2.5% solution and FIG. 6B for IEIK13 1.5% solution, respectively. Frequency sweep tests were performed from 1 rad/sec to 10 rad/sec at 1 Pa and the storage modulus at 1 rad/sec was selected for data.
Based on the results of the effect on the rheological properties of the peptide solutions after adjusting their pH level, the effect on the rheological properties of the peptide hydrogels at various pH after DMEM treatment was evaluated and compared to the effect on the rheological properties of the peptide solutions at various pH before DMEM treatment. […] The results are shown in FIGS. 7A-7B for PuraMatrix® and FIGS. 8A-8B for IEIK (SEQ ID NO: 5), respectively. Frequency sweep tests were performed from 1 rad/sec to 10 rad/sec at 1 Pa and the storage modulus at 1 rad/sec was selected for data.

[2] = Appearance of 1.5% peptide solutions with various salts at room temperature; type: physicochemical; conditions: for Appearance: room temperature
Method: The effect of salt ionic strength level on the properties of peptide solutions was evaluated to identify optimized salt ionic strength levels for the peptides as described herein. Increasing the salt ionic strength level of PuraMatrix® and other peptides may generally improve its function and mechanical strength for various clinical applications. To adjust the salt ionic strength of the peptide solutions by way of example, various salt buffer solutions including NaCl, KCl, MgCl2, CaCl2 and DPBS (10×) were added to 2 mL of 1.5% peptide solutions.

For “Arg-Ala-Asp-Ala-Arg-Ala-Asp-Ala-Arg-Ala-Asp-Ala-Arg-Ala-Asp-Ala [PuraMatrix ®]”, the “rheological property of solutions at various pH levels” value ([1]; PuraMatrix 2.5% solution, IEIK13 1.5% solution, storage modulus at 1 rad/sec) was “increases with pH adjustment up to 3.4”, the “rheological property of hydrogels after DMEM treatment at various pH” value ([1]; after DMEM treatment, storage modulus at 1 rad/sec) was “increases with pH adjustment up to 3.4” and the “rheological properties of solutions after pH adjustment” value ([1]; at pH 3.4 (IEIK13 adjusted to 3.7), KLD12 1%, IEIK13 1%, PuraMatrix 1% and 2.5%) was “higher”. The Appearance ([2]; CaCl2 0 M, ionic strength 0 M, PuraMatrix 1.5%) was “Clear, thick gel”, the Appearance ([2]; CaCl2 0.05 M, ionic strength 0.15 M, PuraMatrix 1.48%) was “Clear, thick, stiffer gel” and the Appearance ([2]; CaCl2 0.1 M, ionic strength 0.3 M, PuraMatrix 1.45%) was “Clear, thick, stiffer gel”. The Appearance ([2]; CaCl2 0.15 M, ionic strength 0.45 M, PuraMatrix 1.43%) was “Clear, thick, stiffer gel”, the Appearance ([2]; CaCl2 0.2 M, ionic strength 0.6 M, PuraMatrix 1.4%) was “Clear, thick, stiffer gel” and the Appearance ([2]; CaCl2 0.25 M, ionic strength 0.75 M, PuraMatrix 1.38%) was “Clear, thick, stiffer gel”. The Appearance ([2]; CaCl2 0.3 M, ionic strength 0.9 M, PuraMatrix 1.35%) was “Clear, thick, stiffer gel”, the Appearance ([2]; CaCl2 0.35 M, ionic strength 1.05 M, PuraMatrix 1.32%) was “Clear, thick, stiffer gel” and the Appearance ([2]; CaCl2 0.383 M, ionic strength 1.15 M, PuraMatrix 1.31%) was “Clear, thick, stiffer gel”. For the same substance, the Appearance ([2]; CaCl2 0.4 M, ionic strength 1.2 M, PuraMatrix 1.3%) was “Slightly cloudy, thick, stiffer gel”, the Appearance ([2]; CaCl2 0.417 M, ionic strength 1.25 M, PuraMatrix 1.29%) was “Slightly cloudy, brittle gel” and the Appearance ([2]; CaCl2 0.433 M, ionic strength 1.3 M, PuraMatrix 1.28%) was “Cloudy, phase-separated”. For the same substance, the Appearance ([2]; DPBS (pH 3.2) 0 M, ionic strength 0 M, PuraMatrix 1.5%) was “Clear, thick gel”, the Appearance ([2]; DPBS (pH 3.2) 0.15 M, ionic strength 0.15 M, PuraMatrix 1.35%) was “Clear, thick, stiffer gel” and the Appearance ([2]; DPBS (pH 3.2) 0.3 M, ionic strength 0.3 M, PuraMatrix 1.2%) was “Clear, thick, stiffer gel”. For the same substance, the Appearance ([2]; DPBS (pH 3.2) 0.45 M, ionic strength 0.45 M, PuraMatrix 1.05%) was “Clear, thick, stiffer gel”, the Appearance ([2]; DPBS (pH 3.2) 0.6 M, ionic strength 0.6 M, PuraMatrix 0.9%) was “Clear, thick, stiffer gel” and the Appearance ([2]; DPBS (pH 3.2) 0.75 M, ionic strength 0.75 M, PuraMatrix 0.75%) was “Clear, thick, stiffer gel”. For the same substance, the Appearance ([2]; DPBS (pH 3.2) 0.9 M, ionic strength 0.9 M, PuraMatrix 0.6%) was “Clear, thick, stiffer gel”, the Appearance ([2]; DPBS (pH 3.2) 0.95 M, ionic strength 0.95 M, PuraMatrix 0.55%) was “Slightly cloudy, brittle gel” and the Appearance ([2]; DPBS (pH 3.2) 1.0 M, ionic strength 1.0 M, PuraMatrix 0.5%) was “Cloudy, phase-separated”. The Appearance ([2]; KCl 0 M, ionic strength 0 M, PuraMatrix 1.5%) was “Clear, thick gel”, the Appearance ([2]; KCl 0.15 M, ionic strength 0.15 M, PuraMatrix 1.43%) was “Clear, thick, stiffer gel” and the Appearance ([2]; KCl 0.3 M, ionic strength 0.3 M, PuraMatrix 1.35%) was “Clear, thick, stiffer gel”. For the same substance, the Appearance ([2]; KCl 0.45 M, ionic strength 0.45 M, PuraMatrix 1.27%) was “Clear, thick, stiffer gel”, the Appearance ([2]; KCl 0.6 M, ionic strength 0.6 M, PuraMatrix 1.2%) was “Clear, thick, stiffer gel” and the Appearance ([2]; KCl 0.75 M, ionic strength 0.75 M, PuraMatrix 1.13%) was “Clear, thick, stiffer gel”. The Appearance ([2]; KCl 0.9 M, ionic strength 0.9 M, PuraMatrix 1.05%) was “Clear, thick, stiffer gel”, the Appearance ([2]; KCl 0.95 M, ionic strength 0.95 M, PuraMatrix 1.03%) was “Clear, thick, stiffer gel” and the Appearance ([2]; KCl 1.0 M, ionic strength 1.0 M, PuraMatrix 1.0%) was “Clear, thick, stiffer gel”. The Appearance ([2]; KCl 1.05 M, ionic strength 1.05 M, PuraMatrix 0.98%) was “Slightly cloudy, thick, stiffer gel”, the Appearance ([2]; KCl 1.1 M, ionic strength 1.1 M, PuraMatrix 0.95%) was “Slightly cloudy, brittle gel” and the Appearance ([2]; KCl 1.15 M, ionic strength 1.15 M, PuraMatrix 0.93%) was “Cloudy, phase-separated”. The Appearance ([2]; MgCl2 0 M, ionic strength 0 M, PuraMatrix 1.5%) was “Clear, thick gel”, the Appearance ([2]; MgCl2 0.05 M, ionic strength 0.15 M, PuraMatrix 1.48%) was “Clear, thick, stiffer gel” and the Appearance ([2]; MgCl2 0.1 M, ionic strength 0.3 M, PuraMatrix 1.45%) was “Clear, thick, stiffer gel”. For the same substance, the Appearance ([2]; MgCl2 0.15 M, ionic strength 0.45 M, PuraMatrix 1.43%) was “Clear, thick, stiffer gel”, the Appearance ([2]; MgCl2 0.2 M, ionic strength 0.6 M, PuraMatrix 1.4%) was “Clear, thick, stiffer gel” and the Appearance ([2]; MgCl2 0.25 M, ionic strength 0.75 M, PuraMatrix 1.38%) was “Clear, thick, stiffer gel”. For the same substance, the Appearance ([2]; MgCl2 0.3 M, ionic strength 0.9 M, PuraMatrix 1.35%) was “Clear, thick, stiffer gel”, the Appearance ([2]; MgCl2 0.35 M, ionic strength 1.05 M, PuraMatrix 1.32%) was “Clear, thick, stiffer gel” and the Appearance ([2]; MgCl2 0.383 M, ionic strength 1.15 M, PuraMatrix 1.31%) was “Clear, thick, stiffer gel”. The Appearance ([2]; MgCl2 0.4 M, ionic strength 1.2 M, PuraMatrix 1.3%) was “Slightly cloudy, thick, stiffer gel”, the Appearance ([2]; MgCl2 0.417 M, ionic strength 1.25 M, PuraMatrix 1.29%) was “Slightly cloudy, brittle gel” and the Appearance ([2]; MgCl2 0.433 M, ionic strength 1.3 M, PuraMatrix 1.28%) was “Cloudy, phase-separated”. The Appearance ([2]; NaCl 0 M, ionic strength 0 M, PuraMatrix 1.5%) was “Clear, thick gel”, the Appearance ([2]; NaCl 0.15 M, ionic strength 0.15 M, PuraMatrix 1.43%) was “Clear, thick, stiffer gel” and the Appearance ([2]; NaCl 0.3 M, ionic strength 0.3 M, PuraMatrix 1.35%) was “Clear, thick, stiffer gel”. For the same substance, the Appearance ([2]; NaCl 0.45 M, ionic strength 0.45 M, PuraMatrix 1.27%) was “Clear, thick, stiffer gel”, the Appearance ([2]; NaCl 0.6 M, ionic strength 0.6 M, PuraMatrix 1.2%) was “Clear, thick, stiffer gel” and the Appearance ([2]; NaCl 0.75 M, ionic strength 0.75 M, PuraMatrix 1.13%) was “Clear, thick, stiffer gel”. For the same substance, the Appearance ([2]; NaCl 0.8 M, ionic strength 0.8 M, PuraMatrix 1.10%) was “Clear, thick, stiffer gel”, the Appearance ([2]; NaCl 0.85 M, ionic strength 0.85 M, PuraMatrix 1.08%) was “Clear, thick, stiffer gel” and the Appearance ([2]; NaCl 0.9 M, ionic strength 0.9 M, PuraMatrix 1.05%) was “Slightly cloudy, brittle gel”. The Appearance ([2]; NaCl 0.95 M, ionic strength 0.95 M, PuraMatrix 1.03%) was “Cloudy, phase-separated”, the Appearance ([2]; NaCl 1.0 M, ionic strength 1.0 M, PuraMatrix 1.0%) was “Cloudy, phase-separated” and the “apparent stiffness on salt ionic strength increase” value ([2]; up to the ionic strength at which solutions stay clear) was “increased”.
